Assays:
[1] = test system: CLP-induced polymicrobial septic shock; assay: Mouse survival after cecal ligation and puncture (CLP)-induced septic shock
Procedure: CLP-induced septic shock was induced in 8-10 week old C57BL/6J male mice (20-25 g; Charles River) following previously reported methods (Rittirsch D, et al., 2009. Immunodesign of experimental sepsis by cecal ligation and puncture. Nat Protoc 4:31-36). The severity of the CLP model was adjusted to achieve a high-grade mortality (meaning ≥90% mortality in the first 48-72 h) by ligating 75% of cecum. Mice were anesthetized with 100 mg/kg ketamine (Imalgéne 1000, Merial) and 10 mg/kg xylazine (Rompun, Bayer) subsequently resuscitated with 1 mL saline serum intraperitoneally (i.p.). To mitigate pain effects, 0.05 mg/kg/12 h Buprenorphin was administered subcutaneously. […] Daily weight loss monitoring (usually was of 10-15% in the first 48 h post-CLP) allowed exclusion of animals not undergoing clinical sepsis.
The survival data were represented in Kaplan-Meier graphs and analysed by the Log-Rank χ^2 test. Statistical significant differences (P<0.01) were determined by 2-tailed non parametric Mann-Whitney test.

[2] = test system: bacterial load; assay: Bacterial load (cfu) post CLP-induced septic shock; format: in vivo, C57BL/6J mice
Procedure: Blood samples were taken from live mice by facial vein puncture at 4 h post-CLP. Peritoneal, spleen and kidney samples were obtained from euthanized mice at 20 h post-CLP. For peritoneal lavage, euthanized mice were i.p. infused with 3 mL cold PBS. After gently abdominal massaging for 5 min, the peritoneal fluid was collected taking care to avoid clogging by the fat tissue and not to damage internal organs. Blood-contaminated peritoneal samples were discarded. The collected peritoneal fluid was centrifuged (3500 rpm, 10 min at 4° C.) and the pellet resuspended in 200 μL PBS. Spleen (100 mg) and kidney (250 mg) homogenization was performed by pressing the organs with a syringe plunger through a 40 μm cell strainer in 3 mL cold PBS. The resulting homogenates were centrifuged (3500 rpm, 10 min at 4° C.) and pellets resuspended in 750 μL PBS. Serial dilutions of blood, peritoneal lavage, and spleen and kidney homogenates were prepared in sterile PBS for plating on agar with 5% sheep blood (Becton Dikinson, UK) at 37° C. overnight. Viable bacterial counts were expressed as colony-forming units (cfu) per mL or mg.

[3] = test system: septic shock induced by G+ and G− bacterial endotoxins (LTA+PGN, and LPS) and whole alive bacteria (Staphylococcus aureus, Acinetobacter baumannii); conditions: prophylactic infusion; mouse models of septic shock; cited from earlier work
[4] = test system: pro- (TNF-α, IL-1β, IL-6) and anti- (IL-10) inflammatory cytokines; assay: ELISA of cytokine plasma levels post CLP-induced septic shock; format: in vivo, C57BL/6J mice
Procedure: (§1) Plasma levels of rshCD6 were determined by sandwich ELISA, using unlabelled (161.8) and biotin-labelled (SPV-L14.2) anti-CD6 monoclonal antibodies (2 μg/mL, each) as capture and detection antisera, respectively. Serial dilutions of purified rshCD6 were used as a standard. Diluted or undiluted plasma samples were used for monitoring IL-6 (1:70; Mouse IL-6 ELISA Set, BD Bioscience-555240), TNF-α (1:10; Mouse TNF-α ELISA Set, BD Bioscience-558534), IL-10 (neat; Mouse IL-10 ELISA Set, BD Bioscience-555252), and IL-1β (neat; Mouse IL-1β ELISA Set, BD Bioscience-559603) levels by commercially available ELISA kits, following manufacturer's instructions. Plates were developed with horseradish peroxidase-labeled streptavidin (Roche Diagnostics) and TMB Substrate Reagent Set (BD OptEIA, BD Biosciences), and further measurement of optical density at 450 nm (OD450 nm).

[5] = design: species or system C57BL/6J mice; conditions: mouse, in vivo, 1.25 mg/kg
Procedure: as §1

[6] = test system: LPS-induced septic shock; conditions: intraperitoneal (i.p.) administration, mice; cited from earlier work
[7] = single dose 1.25 mg/kg i.p. 1 h before (−1 h) CLP induction, FIG. 1A
[8] = prophylactic (−1 h) 1.25 mg/kg i.p., FIG. 1D
[9] = therapeutic (+1 h) 1.25 mg/kg i.p., FIG. 2D
[10] = prophylactic (−1 h) 1.25 mg/kg i.p., +4 h, +20 h post-CLP, FIG. 1C
[11] = therapeutic (+1 h) 1.25 mg/kg i.p., 4 and 20 h post-CLP, FIG. 2C

B1: rshCD5: purified recombinant soluble human CD5 protein, used as comparison protein (protein, UniProt P06127 25-372, looked up)
extracellular domain: RLSWYDPDFQARLTRSNSKCQGQLEVYLKDGWHMVCSQSWGRSSKQWEDPSQASKVCQRLNCGVPLSLGPFLVTYTPQSSIICYGQLGSFSNCSHSRNDMCHSLGLTCLEPQKTTPPTTRPPPTTTPEPTAPPRLQLVAQSGGQHCAGVVEFYSGSLGGTISYEAQDKTQDLENFLCNNLQCGSFLKHLPETEAGRAQDPGEPREHQPLPIQWKIQNSSCTSLEHCFRKIKPQKSGRVLALLCSGFQPKVQSRLVGGSSICEGTVEVRQGAQWAALCDSSSARSSLRWEEVCREQQCGSVNSYRVLDAGDPTSRGLFCPHQKLSQCHELWERNSYCKKVFVTCQDPNP
modifications: extracellular domain
- survival [1, 7]: 11.11%

B2: rshCD6: recombinantly obtained soluble human CD6 ectodomain (SEQ ID NO: 1) (protein, listed as Homo sapiens)
chain: DQLNTSSAESELWEPGERLPVRLTNGSSSCSGTVEVRLEASWEPACGALWDSRAAEAVCRALGCGGAEAASQLAPPTPELPPPPAAGNTSVAANATLAGAPALLCSGAEWRLCEVVEHACRSDGRRARVTCAENRALRLVDGGGACAGRVEMLEHGEWGSVCDDTWDLEDAHVVCRQLGCGWAVQALPGLHFTPGRGPIHRDQVNCSGAEAYLWDCPGLPGQHYCGHKEDAGVVCSEHQSWRLTGGADRCEGQVEVHFRGVWNTVCDSEWYPSEAKVLCQSLGCGTAVERPKGLPHSLSGRMYYSCNGEELTLSNCSWRFNNSNLCSQSLAARVLCSASRSLHNLSTPEVPASVQTVTIESSVTVKIENKESR
- bacterial load from blood compared to saline-treated group [2, 8]: lowered
- bacterial load from kidney compared to saline-treated group [2, 8]: lowered
- bacterial load from spleen compared to saline-treated group [2, 8]: lowered
- bacterial load (cfu) from blood with regard to saline-treated group [2, 9]: lower cfu
- bacterial load (cfu) from kidney with regard to saline-treated group [2, 9]: lower cfu
- bacterial load (cfu) from spleen with regard to saline-treated group [2, 9]: lower cfu
- prophylactic dose giving statistical significant results on survival ([1]; i.p. 1 h before CLP, FIG. 1B): above 0.625 mg/kg
- prophylactic dose reaching maximal efficacy on survival ([1]; i.p. 1 h before CLP, FIG. 1B): 2.5 mg/kg
- optimal rshCD6 dose in mice ([1]; mice): 1.25 to 2.50 mg/kg
- survival ([1]; repeated dosage 1.25 mg/kg i.p. at +1 h, +3 h and +6 h post-CLP, FIG. 2B): 26.32%
- survival [1, 7]: 47.06%
- survival ([1]; single dose 1.25 mg/kg i.v. at +1 h post-CLP, FIG. 3B): 30%
- survival ([1]; single dose 1.25 mg/kg i.v. at +3 h post-CLP, FIG. 3B): 20%
- survival ([1]; single dose 1.25 mg/kg i.v. at +6 h post-CLP, FIG. 3B): 40%
- survival ([1]; single infusion 1.25 mg/kg i.p. at +1 h post-CLP, FIG. 2A): 29.03%
- survival ([1]; single infusion 1.25 mg/kg i.p. at +3 h post-CLP, FIG. 2A): 14.28%
- survival ([1]; single infusion 1.25 mg/kg i.p. at +6 h post-CLP, FIG. 2A): 17.65%
- mortality [3]: significantly reduces
- serum levels of pro-inflammatory cytokines (IL-1β, IL-6 and TNF-α) [3]: significantly reduces
- plasma level of IL-1β compared to saline-treated group [4, 10]: significantly lowered
- plasma level of IL-6 compared to saline-treated group [4, 10]: significantly lowered
- plasma level of IL-10 compared to saline-treated group [4, 10]: higher levels
- plasma level of TNF-α compared to saline-treated group [4, 10]: significantly lowered
- plasma level of IL-1β compared with saline-treated group [4, 11]: lower pro-inflammatory cytokine levels, which reached statistical significance
- plasma level of IL-6 compared with saline-treated group [4, 11]: lower pro-inflammatory cytokine levels, which reached statistical significance
- plasma level of IL-10 compared with saline-treated group [4, 11]: no differences observed
- plasma level of TNF-α compared with saline-treated group [4, 11]: lower pro-inflammatory cytokine levels
- maximal plasma levels achieved via i.v. versus via i.p. [5]: higher
- time of decrease to nearly basal plasma levels ([5]; ip): ≤ 6 h
- time of maximal rshCD6 plasma levels ([5]; ip): 3 h
- time of decline to nearly basal plasma levels ([5]; iv): ≤ 6 h
- time of maximal and sustained plasma levels ([5]; iv): 1 to 3 h
- lethal effects caused by LPS-induced septic shock [6]: counteracts the lethal effects
